Assay results as given in ChEMBL document CHEMBL1155741, “Ellagitannins and hexahydroxydiphenoyl esters as inhibitors of vertebrate squalene epoxidase” (J Nat Prod, 2001).

Substrate: CC(C)=CCC/C(C)=C/CC/C(C)=C/CC/C=C(\C)CC/C=C(\C)CCC=C(C)C
Assay: Activity of C-terminal hexahistidine-tagged rat recombinant squalene epoxidase without N-terminal putative membrane domain expressed in Escherichia coli

B1: Squalene monooxygenase (Rattus norvegicus), P52020 (protein)
chain: MWTFLGIATFTYFYKKCGDVTLANKELLLCVLVFLSLGLVLSYRCRHRNGGLLGRHQSGSQFAAFSDILSALPLIGFFWAKSPPESEKKEQLESKRRRKEVNLSETTLTGAATSVSTSSVTDPEVIIIGSGVLGSALATVLSRDGRTVTVIERDLKEPDRILGECLQPGGYRVLRELGLGDTVESLNAHHIHGYVIHDCESRSEVQIPYPVSENNQVQSGVAFHHGKFIMSLRKAAMAEPNVKFIEGVVLRLLEEDDAVIGVQYKDKETGDTKELHAPLTVVADGLFSKFRKNLISNKVSVSSHFVGFIMKDAPQFKANFAELVLVDPSPVLIYQISPSETRVLVDIRGELPRNLREYMTEQIYPQIPDHLKESFLEACQNARLRTMPASFLPPSSVNKRGVLLLGDAYNLRHPLTGGGMTVALKDIKIWRQLLKDIPDLYDDAAIFQAKKSFFWSRKRSHSFVVNVLAQALYELFSATDDSLRQLRKACFLYFKLGGECLTGPVGLLSILSPDPLLLIRHFFSVAVYATYFCFKSEPWATKPRALFSSGAILYKACSIIFPLIYSEMKYLVH
Km: 3.8 µM
kcat: 4.1 min⁻¹
